{"source": "patent US20170232104A1", "key": {"[1]": {"molecular_target": "28mer peptide of the CXCR5 antigen", "assay": "antigen ELISA; PBS 155 mM, light stress, 24 h +40C"}, "[2]": {"molecular_target": "28mer peptide of the CXCR5 antigen", "assay": "antigen ELISA; 100 mg/mL formulation, +5C, 1 month"}, "[3]": {"molecular_target": "28mer peptide of the CXCR5 antigen", "assay": "antigen ELISA; 100 mg/mL formulation, +5C, initial"}, "[4]": {"molecular_target": "28mer peptide of the CXCR5 antigen", "assay": "antigen ELISA; PBS 155 mM, polypropylene, 24 h +40C"}, "[5]": {"molecular_target": "28mer peptide of the CXCR5 antigen", "assay": "antigen ELISA; 100 mg/mL formulation, -20C, 1 month"}, "[6]": {"molecular_target": "28mer peptide of the CXCR5 antigen", "assay": "antigen ELISA; 100 mg/mL formulation, -20C, initial"}, "[7]": {"molecular_target": "28mer peptide of the CXCR5 antigen", "assay": "antigen ELISA; 100 mg/mL formulation, +5C, 3 months"}, "[8]": {"molecular_target": "28mer peptide of the CXCR5 antigen", "assay": "antigen ELISA; 100 mg/mL formulation, +5C, 6 months"}, "[9]": {"molecular_target": "28mer peptide of the CXCR5 antigen", "assay": "antigen ELISA; 100 mg/mL formulation, +5C, 9 months"}, "[10]": {"molecular_target": "28mer peptide of the CXCR5 antigen", "assay": "antigen ELISA; 100 mg/mL formulation, +25C, 1 month"}, "[11]": {"molecular_target": "28mer peptide of the CXCR5 antigen", "assay": "antigen ELISA; 100 mg/mL formulation, +25C, initial"}, "[12]": {"molecular_target": "28mer peptide of the CXCR5 antigen", "assay": "antigen ELISA; 100 mg/mL formulation, -20C, 3 months"}, "[13]": {"molecular_target": "28mer peptide of the CXCR5 antigen", "assay": "antigen ELISA; 100 mg/mL formulation, -20C, 6 months"}, "[14]": {"molecular_target": "28mer peptide of the CXCR5 antigen", "assay": "antigen ELISA; 100 mg/mL formulation, -20C, 9 months"}, "[15]": {"molecular_target": "28mer peptide of the CXCR5 antigen", "assay": "antigen ELISA; 100 mg/mL formulation, +5C, 12 months"}, "[16]": {"molecular_target": "28mer peptide of the CXCR5 antigen", "assay": "antigen ELISA; 100 mg/mL formulation, +5C, 15 months"}, "[17]": {"molecular_target": "28mer peptide of the CXCR5 antigen", "assay": "antigen ELISA; 100 mg/mL formulation, +5C, 18 months"}, "[18]": {"molecular_target": "28mer peptide of the CXCR5 antigen", "assay": "antigen ELISA; 100 mg/mL formulation, +25C, 3 months"}, "[19]": {"molecular_target": "28mer peptide of the CXCR5 antigen", "assay": "antigen ELISA; 100 mg/mL formulation, +25C, 6 months"}, "[20]": {"molecular_target": "28mer peptide of the CXCR5 antigen", "assay": "antigen ELISA; 100 mg/mL formulation, -20C, 12 months"}, "[21]": {"molecular_target": "28mer peptide of the CXCR5 antigen", "assay": "antigen ELISA; 100 mg/mL formulation, -20C, 18 months"}, "[22]": {"molecular_target": "28mer peptide of the CXCR5 antigen", "assay": "antigen ELISA; citrate pH 6.0 prototype B, 20 mg/mL, T0"}, "[23]": {"molecular_target": "28mer peptide of the CXCR5 antigen", "assay": "antigen ELISA; citrate pH 6.0 prototype C, 20 mg/mL, T0"}, "[24]": {"molecular_target": "28mer peptide of the CXCR5 antigen", "assay": "antigen ELISA; acetate pH 5.5 prototype C, 20 mg/mL, T0"}, "[25]": {"molecular_target": "28mer peptide of the CXCR5 antigen", "assay": "antigen ELISA; acetate pH 5.5 prototype D, 20 mg/mL, T0"}, "[26]": {"molecular_target": "28mer peptide of the CXCR5 antigen", "assay": "antigen ELISA; PBS 155 mM, clear glass type I, 24 h +40C"}, "[27]": {"molecular_target": "28mer peptide of the CXCR5 antigen", "assay": "antigen ELISA; PBS 155 mM, 1 h purged with air, 24 h +40C"}, "[28]": {"molecular_target": "28mer peptide of the CXCR5 antigen", "assay": "antigen ELISA; histidine pH 5.0 prototype A, 20 mg/mL, T0"}, "[29]": {"molecular_target": "28mer peptide of the CXCR5 antigen", "assay": "antigen ELISA; histidine pH 5.0 prototype D, 20 mg/mL, T0"}, "[30]": {"molecular_target": "28mer peptide of the CXCR5 antigen", "assay": "antigen ELISA; PBS 155 mM, clear glass type I as T0, 24 h +40C"}, "[31]": {"molecular_target": "28mer peptide of the CXCR5 antigen", "assay": "antigen ELISA; histidine pH 5.0 prototype B (table title LA_09_029B), 20 mg/mL, T0"}}, "data": [{"binder": "Lead CXCR5 Antibody (humanized IgG4 anti-CXCR5 antibody) (antibody, V domains shown) VH: QVQLKESGPGLVAPSESLSITCTVSGFSLIDYGVNWIRQPPGKGLEWLGVIWGDGTTYYNPSLKSRLSISKDNSKSQVFLKVTSLTTDDTAMYYCARIVYWGQGTLVTVSA VL: DIVMTQAAPSVAVTPGASVSISCRSSKSLLHSSGKTYLYWFLQRPGQSPQLLIYRLSSLASGVPDRFSGSGSGTAFTLRISRVEAEDVGVYYCMQHLEYPYTFGGGTKLEIKR", "values": [{"measurement": "EC50%", "setting": "[1]", "value": 72.3, "unit": "%"}, {"measurement": "Potency (Antigen ELISA) EC50 value (in comparison to reference)", "setting": "[2]", "value": 105, "unit": "%"}, {"measurement": "Potency (Antigen ELISA) EC50 value (in comparison to reference)", "setting": "[3]", "value": 75, "unit": "%"}, {"measurement": "EC50%", "setting": "[4]", "value": 107, "unit": "%"}, {"measurement": "Potency (Antigen ELISA) EC50 value (in comparison to reference)", "setting": "[5]", "value": 107, "unit": "%"}, {"measurement": "Potency (Antigen ELISA) EC50 value (in comparison to reference)", "setting": "[6]", "value": 75, "unit": "%"}, {"measurement": "Potency (Antigen ELISA) EC50 value (in comparison to reference)", "setting": "[7]", "value": 95, "unit": "%"}, {"measurement": "Potency (Antigen ELISA) EC50 value (in comparison to reference)", "setting": "[8]", "value": 97, "unit": "%"}, {"measurement": "Potency (Antigen ELISA) EC50 value (in comparison to reference)", "setting": "[9]", "value": 92, "unit": "%"}, {"measurement": "Potency (Antigen ELISA) EC50 value (in comparison to reference)", "setting": "[10]", "value": 121, "unit": "%"}, {"measurement": "Potency (Antigen ELISA) EC50 value (in comparison to reference)", "setting": "[11]", "value": 75, "unit": "%"}, {"measurement": "Potency (Antigen ELISA) EC50 value (in comparison to reference)", "setting": "[12]", "value": 84, "unit": "%"}, {"measurement": "Potency (Antigen ELISA) EC50 value (in comparison to reference)", "setting": "[13]", "value": 96, "unit": "%"}, {"measurement": "Potency (Antigen ELISA) EC50 value (in comparison to reference)", "setting": "[14]", "value": 101, "unit": "%"}, {"measurement": "Potency (Antigen ELISA) EC50 value (in comparison to reference)", "setting": "[15]", "value": 93, "unit": "%"}, {"measurement": "Potency (Antigen ELISA) EC50 value (in comparison to reference)", "setting": "[16]", "value": 114, "unit": "%"}, {"measurement": "Potency (Antigen ELISA) EC50 value (in comparison to reference)", "setting": "[17]", "value": 119, "unit": "%"}, {"measurement": "Potency (Antigen ELISA) EC50 value (in comparison to reference)", "setting": "[18]", "value": 96, "unit": "%"}, {"measurement": "Potency (Antigen ELISA) EC50 value (in comparison to reference)", "setting": "[19]", "value": 104, "unit": "%"}, {"measurement": "Potency (Antigen ELISA) EC50 value (in comparison to reference)", "setting": "[20]", "value": 96, "unit": "%"}, {"measurement": "Potency (Antigen ELISA) EC50 value (in comparison to reference)", "setting": "[21]", "value": 127, "unit": "%"}, {"measurement": "EC50%", "setting": "[22]", "value": 104, "unit": "%"}, {"measurement": "EC50%", "setting": "[23]", "value": 104, "unit": "%"}, {"measurement": "EC50%", "setting": "[24]", "value": 142, "unit": "%"}, {"measurement": "EC50%", "setting": "[25]", "value": 91, "unit": "%"}, {"measurement": "EC50%", "setting": "[26]", "value": 131, "unit": "%"}, {"measurement": "EC50%", "setting": "[27]", "value": 84.3, "unit": "%"}, {"measurement": "EC50%", "setting": "[28]", "value": 174, "unit": "%"}, {"measurement": "EC50%", "setting": "[29]", "value": 169, "unit": "%"}, {"measurement": "EC50%", "setting": "[30]", "value": 62.3, "unit": "%"}, {"measurement": "EC50%", "setting": "[31]", "value": 118, "unit": "%"}]}]}
